Tests used:
[1] = target: T1, human IgE (full length human immunoglobulin E) (human, UniProt P01854 1-546); experiment: serum free IgE depletion ELISA; DIN 0382, initial free IgE 2827 ng/mL
[2] = target: T1, human IgE (full length human …); experiment: serum free IgE depletion ELISA; DIN 0649, initial free IgE 93 ng/mL
[3] = target: T1, human IgE (full length human …); experiment: serum free IgE depletion ELISA; DIN 0321 experiment 2, initial free IgE 265 ng/mL
[4] = target: T1, human IgE (full length human …); experiment: serum free IgE depletion ELISA; DIN 0011 experiment 1, initial free IgE 555 ng/mL
[5] = target: T1, human IgE (full length human …); experiment: serum free IgE depletion ELISA; DIN 0632 experiment 2, initial free IgE 289 ng/mL
[6] = target: T1, human IgE (full length human …); experiment: serum free IgE depletion ELISA; DIN 0623 experiment 1, initial free IgE 145 ng/mL
[7] = target: T1, human IgE (full length human …); experiment: serum free IgE depletion ELISA; DIN 0591, initial free IgE 152 ng/mL
[8] = target: T1, human IgE (full length human …); experiment: serum free IgE depletion ELISA; DIN 0321 experiment 1, initial free IgE 262 ng/mL
[9] = target: T1, human IgE (full length human …); experiment: serum free IgE depletion ELISA; DIN 0451 experiment 1, initial free IgE 557 ng/mL
[10] = target: T1, human IgE (full length human …); experiment: serum free IgE depletion ELISA; DIN 0155, initial free IgE 93 ng/mL
human IgG3 = target: T2, human IgG3 (human, UniProt P01860-1 1-377); experiment: ELISA, immunoglobulin coated at 4 µg/mL, anti-human IgG2 detection
T2 construct: bought preparation coated on the ELISA plate; not shown: bought immunoglobulin, light chain not described
T2 sequence (P01860 other isoform, or with tags, fused parts or gaps): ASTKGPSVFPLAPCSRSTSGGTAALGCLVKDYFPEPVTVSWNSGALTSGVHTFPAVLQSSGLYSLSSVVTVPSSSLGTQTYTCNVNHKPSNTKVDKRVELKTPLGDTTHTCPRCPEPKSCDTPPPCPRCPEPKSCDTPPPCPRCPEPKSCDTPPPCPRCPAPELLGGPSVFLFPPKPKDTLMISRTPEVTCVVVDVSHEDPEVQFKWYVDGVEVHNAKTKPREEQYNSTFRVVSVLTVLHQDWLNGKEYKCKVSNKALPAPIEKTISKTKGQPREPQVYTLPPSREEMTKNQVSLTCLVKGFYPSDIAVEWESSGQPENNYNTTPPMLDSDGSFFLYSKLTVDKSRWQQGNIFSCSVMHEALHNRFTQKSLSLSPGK
Experimental: (§1) Wells were washed 3× with 150 μL wash buffer (0.05% Tween-20 (Sigma, Cat. No. P7949)/PBS) then blocked with 150 μL/well blocking buffer (2.5% BSA (Sigma, Cat. No. A7030)/PBS) for 2 hours at room temperature. Wells were washed 3× with 150 μL wash buffer/well. […] Antibodies were diluted in diluent buffer (PBS/1% BSA/0.05% Tween-20) and this was added to blank control wells (duplicate wells for each secondary antibody used). Antibodies were incubated for 2 hours at room temperature. Wells were washed 3× with 150 μL wash buffer/well. Binding of control antibodies to immunoglobulin was detected with anti-mouse IgG-HRP conjugate (Sigma, Cat. No. A4416) diluted 1:8000 in diluent buffer. 50 μL/well was added to control antibody and blank wells. Wells were incubated for 1 hour at room temperature, then washed 3× with 150 μL wash buffer/well. 50 μl OPD (Dako, Cat. No. […] Wells were incubated for 1 hour at room temperature then washed 3× with 150 μL wash buffer/well. Streptavidin-HRP (Amersham Bioscience, Cat. No. RPN 1231) diluted 1:2000 in diluent buffer was added to all wells and incubated for 45 minutes at room temperature. Wells were washed (3×150 μL wash buffer).

human IgA = target: T3, human IgA (human); experiment: as above
T3 construct: bought preparation coated on the ELISA plate
Experimental: as §1

[11] = target: T1, human IgE (full length human …); experiment: as above
Experimental: as §1

human IgG1 = target: T4, human IgG1 (human, UniProt P01857-1 1-330 = IgG part); experiment: as above
T4 construct: bought preparation coated on the ELISA plate; not shown: bought immunoglobulin, light chain not described
T4 sequence (P01857 other isoform, or with tags, fused parts or gaps): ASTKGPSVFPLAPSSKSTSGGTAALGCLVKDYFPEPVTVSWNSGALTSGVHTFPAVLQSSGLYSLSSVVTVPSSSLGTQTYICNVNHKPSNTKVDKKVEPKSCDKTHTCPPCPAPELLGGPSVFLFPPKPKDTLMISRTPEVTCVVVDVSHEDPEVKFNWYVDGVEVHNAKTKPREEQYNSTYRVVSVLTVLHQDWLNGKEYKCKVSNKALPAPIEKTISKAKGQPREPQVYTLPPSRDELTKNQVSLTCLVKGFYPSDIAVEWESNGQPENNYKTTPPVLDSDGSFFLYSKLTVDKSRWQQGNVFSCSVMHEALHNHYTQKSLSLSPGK
Experimental: as §1

[12] = target: T1, human IgE (full length human …); experiment: serum free IgE depletion ELISA; DIN 0451 experiment 2, initial free IgE 534 ng/mL
[13] = target: T1, human IgE (full length human …); experiment: serum free IgE depletion ELISA; DIN 0748, initial free IgE 4609 ng/mL
[14] = target: T1, human IgE (full length human …); experiment: serum free IgE depletion ELISA; DIN 0623 experiment 2, initial free IgE 133 ng/mL
[15] = target: T1, human IgE (full length human …); experiment: serum free IgE depletion ELISA; DIN 0284, initial free IgE 339 ng/mL
[16] = target: T1, human IgE (full length human …); experiment: serum free IgE depletion ELISA; DIN 0632 experiment 1, initial free IgE 532 ng/mL
[17] = target: T1, human IgE (full length human …); experiment: serum free IgE depletion ELISA; DIN 0011 experiment 2, initial free IgE 326 ng/mL
[18] = target: T1, human IgE (full length human …); experiment: serum free IgE depletion ELISA; DIN 0347, initial free IgE 221 ng/mL

T1 sequence (P01854 whole entry): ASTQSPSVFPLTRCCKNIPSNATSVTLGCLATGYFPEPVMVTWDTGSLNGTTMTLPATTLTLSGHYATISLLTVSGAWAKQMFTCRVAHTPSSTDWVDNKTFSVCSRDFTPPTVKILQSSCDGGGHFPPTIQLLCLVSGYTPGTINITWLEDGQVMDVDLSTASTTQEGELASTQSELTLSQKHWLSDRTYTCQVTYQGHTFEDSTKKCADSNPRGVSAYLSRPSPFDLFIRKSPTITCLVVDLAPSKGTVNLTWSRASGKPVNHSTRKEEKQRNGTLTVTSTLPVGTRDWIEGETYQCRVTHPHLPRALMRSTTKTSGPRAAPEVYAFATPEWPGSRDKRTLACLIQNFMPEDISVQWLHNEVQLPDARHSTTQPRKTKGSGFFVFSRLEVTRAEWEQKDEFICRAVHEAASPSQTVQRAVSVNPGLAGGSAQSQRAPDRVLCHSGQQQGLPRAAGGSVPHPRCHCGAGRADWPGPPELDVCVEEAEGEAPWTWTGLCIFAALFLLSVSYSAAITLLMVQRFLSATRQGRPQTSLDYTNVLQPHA

IC25ng/mL [1]: 25 µg/mL | IC25ng/mL [2]: 1.95 µg/mL | IC25ng/mL [3]: 7.9 µg/mL | IC25ng/mL [4]: 3.3 µg/mL | IC25ng/mL [5]: 6.31 µg/mL | IC25ng/mL [6]: 0.5 µg/mL | IC25ng/mL [7]: 2.35 µg/mL | IC25ng/mL [8]: 1.34 µg/mL | IC25ng/mL [9]: 11.6 µg/mL | IC25ng/mL [10]: 1.81 µg/mL | A290 nm (human IgG3): 0.04 absorbance | A290 nm (human IgA): 0.04 absorbance | A290 nm [11]: 2.57 absorbance | A290 nm (human IgG1): 0.07 absorbance | IC25ng/mL [12]: 39.7 µg/mL | IC25ng/mL [13]: 25.1 µg/mL | IC25ng/mL [14]: 4.13 µg/mL | IC25ng/mL [15]: 2.45 µg/mL | IC25ng/mL [16]: 8.91 µg/mL | IC25ng/mL [17]: 6.34 µg/mL | IC25ng/mL [18]: 4.92 µg/mL
B1: recombinant 5.948.1 (antibody, human IgG2, kappa, V domains shown)
VH: QVQLVQSGAEVKKPGASVKVSCKASGYTFTSYDINWVRQATGQGLEWMGWMDPNSGNTGYAQKFQGRVTMTRNTSISTAYMELSSLRSEDTAVYYCARGHYDSDGYYSFSGMDVWGQGTTVTVSS
VL: not shown
notes: human IgG2 kappa; two batches (762.8 µg/mL and 5.2 mg/mL) were tested; also called 5.948.1 (recombinant); 5.948.1 - Batch 1
